In patent EP1073891B1, “METHOD OF PREDICTING RECEPTOR MODULATING ACTIVITY” (Duke University, priority 1998, dated 1999):

Experiments:
Assay type in all cases: cell-based
[1] = molecular target: T1, estrogen receptor α (ERα) (Homo sapiens, UniProt P03372); assay: LexA yeast two hybrid, β-galactosidase activity assay (Example 3)
T1 construct: The full length estrogen receptor was subcloned in frame into the EcoRI and XhoI sites of pJG4-5; expressed in transfected cells; host or cells: Saccharomyces cerevisiae EGY48
T1 sequence (P03372 1-595): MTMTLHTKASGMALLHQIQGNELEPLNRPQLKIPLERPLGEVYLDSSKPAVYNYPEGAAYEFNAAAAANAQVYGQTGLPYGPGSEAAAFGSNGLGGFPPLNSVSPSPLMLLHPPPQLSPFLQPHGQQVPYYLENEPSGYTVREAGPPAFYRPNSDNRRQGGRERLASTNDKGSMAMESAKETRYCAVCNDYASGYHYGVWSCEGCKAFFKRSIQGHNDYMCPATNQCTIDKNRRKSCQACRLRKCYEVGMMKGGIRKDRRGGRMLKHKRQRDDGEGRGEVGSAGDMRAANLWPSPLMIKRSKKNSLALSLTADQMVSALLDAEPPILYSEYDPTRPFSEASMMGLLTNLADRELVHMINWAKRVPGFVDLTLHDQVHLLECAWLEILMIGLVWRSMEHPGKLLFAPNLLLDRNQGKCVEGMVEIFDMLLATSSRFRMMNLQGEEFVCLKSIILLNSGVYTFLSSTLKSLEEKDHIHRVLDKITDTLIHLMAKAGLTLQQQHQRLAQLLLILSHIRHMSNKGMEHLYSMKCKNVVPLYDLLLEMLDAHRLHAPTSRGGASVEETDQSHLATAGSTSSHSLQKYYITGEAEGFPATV
From the text: The LexA system that we employ utilizes a bacterial DNA binding protein domain, LexA, and a bacterially derived transcriptional activation sequence, B42. Proteins or peptides of interest are fused in frame with these domains and expressed using episomal plasmids in a yeast cell. The interactions between these proteins/peptides of interest are registered by monitoring the level of the reporter gene product, β-galactosidase, by an enzymatic assay. The differences in the levels of β-galactosidase activities reflect the relative strengths of the protein interactions.
The yeast strains used in this study was EGY48 (MAT a trp1 his3 ura3 leu2::61exAops-LEU2) purchased from OriGeneTechnologies for yeast two hybrid analysis. This strain contains 6 LexA operators upstream of the LEU2 gene in the yeast genome and provides high sensitivity in detecting protein-protein interactions in the LexA two hybrid system. The plasmids used in this study were pEG202 (LexA-DNA binding domain), pJG4-5 (B42-activation domain), and the plasmid containing a β-galactosidase reporter, pJK103 (OriGene Technologies). The full length estrogen receptor was subcloned in frame into the EcoRI and XhoI sites of pJG4-5 to generate an ERα-B42 activation domain fusion. ERα was subcloned in the activation domain plasmid because ERα was able to autoactivate reporters when fused to the LexA DNA binding domain.
The peptide sequences used in this study were generated from synthetic oligos filled in by T7 Sequenase (Life Science) and subcloned into the EcoRI-XhoI sites of pEG202. The synthetic oligos were: [formula] [formula] [formula] [formula] The complementary synthetic oligo used to generate double stranded DNA was 3'XhoPrim, 5'-[…]. Each 5'-oligo was annealed to the 3'-oligo by heating to 90 °C for 15 minutes and cooled slowly to 35 °C. T7 sequenase was added and the fill-in reaction allowed to proceed at 30 °C for 30 minutes. The reaction was terminated by heat denaturing the enzyme at 65 °C for 1 hour, restriction digests were performed and the resulting DNA fragments subcloned into pEG202 to generate peptide-LexA DNA binding domain fusions.
The culture was diluted to ~2x10^6 cells/ml in the same media and allowed to grow at 30 °C until the cultures reached a density of ~1x10^7 cells/ml (∼4 hours). The yeast cells were pelleted by centurifugation, washed with extraction buffer (60 mM Na2HPO4, 40 mMNaH2PO4, 10 mM KCl, 1 mM MgSO4, 1mM PMSF, 7 mM 2-mercaptoethanol) and suspended in 200 µl of extraction buffer. 100 µl of acid-washed glass beads were added and cells were lysed by vigorous agitation for 10 minutes at 4 °C. Cellular debris was pelleted by centrifugation and the supernatant transferred to a clean tube. 10 µg of total cellular protein was diluted into complete Z buffer (60 mM Na2HPO4, 40 mMNaH2PO4 , 10 mM KCl, 1 mM MgSO4, 7 mM 2-mercaptoethanol) to a volume of 100 µl in a 96-well microplate. 80 µg of o-nitrophenyl-β-D-pyranoside (ONPG) in 20 µl was added to each well to initiate color development.
10µg of each protein extract was assayed for β-galactosidase activity using o-nitrophenyl-b-D-pyranoside as substrate. Activity units are defied as 1000* Abs405/minutes/mg/protein.
Values are in beta-galactosidase units (MOD/min/mg)

[2] = molecular target: T2, ERα-VP16 (Homo sapiens, UniProt P03372); assay: Mammalian two-hybrid in HepG2 cells, Gal4-peptide fusions, luciferase reporter (Example 4.1); details: Gal4-peptide fusion, various ligands (Fig. 7)
T2 construct: expressed in transfected cells; host or cells: HepG2
T2 sequence (P03372 1-595): T1 sequence (P03372 1-595)
From the text: Peptide sequences representing each class was fused to the DNA binding domain (DBD) of the yeast transcription factor Ga14. HepG2 cells were then transiently transfected with expression vectors for ERα-VP16 and the Gal4-peptide fusion proteins. In addition, a luciferase reporter construct under the control of 5 copies of a Ga14 upstream enhancer element was also transfected along with a pCMV-β galactosidase vector to normalize for transfection efficiency. Transfection of the Ga14 DBD alone is included as control. Cells were then induced with various ligands as indicated in the figure and assayed for luciferase activity and β galactosidase activity. Normalized response was obtained by dividing the luciferase activity by the β galactosidase activity.

[3] = molecular target: T3, ERα (Homo sapiens, UniProt P03372); assay: Disruption of ER mediated transcriptional activity, C3-Luc reporter in HepG2 cells (Example 4.4); details: Gal4-peptide fusion; for block of the partial agonist activity of tamoxifen: 4-OH tamoxifen activated ER; for inhibition of the ability of estradiol to activate transcription: estradiol (10 nM) activated ER
T3 sequence (P03372 1-595): T1 sequence (P03372 1-595)
From the text: Then HepG2 cells were transfected as above except that expression vectors for Gal4-peptide fusions were included as indicated in 10B. […] Increasing amounts of input plasmid for each Gal4-peptide fusion is also shown with the resulting transcriptional activity presented as % activation of control.

Sequence | Peptide Interactions with ER Alpha, beta-galactosidase units, value ([1]; 4-hydroxy Tamoxifen) | Peptide Interactions with ER Alpha, beta-galactosidase units, value ([1]; Estradiol) | Peptide Interactions with ER Alpha, beta-galactosidase units, value ([1]; No Addition) | Peptide Interactions with ER Alpha, beta-galactosidase units, value ([1]; Tamoxifen Citrate) | interaction with ERα (normalized luciferase response) [2] | block of the partial agonist activity of tamoxifen [3] | block of estradiol mediated transcription [3] | inhibition of the ability of estradiol to activate transcription [3]
SSWDMHQFFWEGVSR [α/β III] | 3194 MOD/min/mg | 605 MOD/min/mg | 381 MOD/min/mg | 600 MOD/min/mg | interact almost exclusively with the tamoxifen bound receptor | efficiently block | inability | 
SSNHQSSRLIELLSR [α/β I] |  |  |  |  | interacts with ER in the presence of estradiol and somewhat with the apo-receptor | is not |  | up to 50%
SSPGSREWFKDMLSR [α/β V] | 4128 MOD/min/mg | 648 MOD/min/mg | 548 MOD/min/mg | 1005 MOD/min/mg | interact almost exclusively with the tamoxifen bound receptor | efficiently block | inability | 
SSLTSRDFGSWYASR [α II] | 20100 MOD/min/mg | 30983 MOD/min/mg | 1224 MOD/min/mg | 8933 MOD/min/mg | interacts with the receptor under all conditions with the apo-receptor and ICI 182,780 bound receptor showing the least activity | efficiently block |  | up to 50%
